Here are results for two molecules from US20190151346A1, “COMBINATIONS THERAPIES FOR THE TREATMENT OF CANCER” (INSERM (INSTITUTE NATIONAL DE LA SANTÉ ET DE LA RECHERCHE …, priority 2016, published 2019).

Type in all cases: cell-based
The subject of test [1] is EGFR. As to the kind of experiment: Immunofluorescence microscopy: localization of EGFR. The following applies: MDA-MB468; 10 ng/ml, 2 hours; FIG. 4A, FIG. 7. The method, then:
(§1) BT20 and MDA-MB468 triple negative (HER2-, ER-, PR-) were obtained from American Type Culture Collection (ATCC N°HTB19, and ATCC N°HTB132, respectively). The LumB, and Her2-, ER-, PR-negative IJG-1731 cell line was previously established at the laboratory as described (Mombelli et al. Sci Rep. 2015 Jul. 8; 5:11874.) BT20 and IJG-1731 cells were grown in complete RPMI-1640 media with L-glutamine, supplemented with 10% fetal calf serum (FCS) and penicillin—streptomycin solution (100 μg/ml each) (Life technology, Saint-Aubain, France). MDA-MB468 cells were grown in a complete DMEM-F12 media with glutamine, 10% FCS and penicillin—streptomycin. All cells were maintained in a humidified 5% CO2 atmosphere at 37° C. All experiments were conducted with cells at confluency and starved for an overnight.
Cells (4.10^3) were grown on Lab-Tek chambers slide in their respective complete culture medium for 24 hours then starved for an overnight. Cells were then stimulated with IL-17E (long/ml), EGF (10 ng/ml) or a combination of both for 2 hours at 37° C., washed, and fixed with 4% paraformaldehyde (PFA)-PBS solution at 4° C. […] Slides were mounted with mounting medium containing Dapi then visualized with a Leica DMRB fluorescence microscope and images analysis was performed with the Archimed Software (Microvision).

The subject of test [2] is Src. Kind of test: Tyrosine phosphorylation by Western blotting: Src phosphorylation in TNBC cell lines. How it is done:
as §1
(§2) Cells (3×10^5) were seeded in 6-well plates in complete medium for 24 hours then starved for another overnight. Cells were then stimulated with IL-17E (10 ng/ml), EGF (10 ng/ml), or a combination of both for 30 min in serum-free medium. Cells were then lysed in 1% Triton X100 buffer and left on ice for 1 hours. Protein samples were then subjected to 8% SDS-PAGE. Western blotting using specific antibodies assessed then the phosphorylation of the various kinases.
(In general: In western blotting, separated proteins are transferred to a membrane and probed.)

Test [3] concerns EGFR. Kind of test: Tyrosine phosphorylation by Western blotting: EGFR phosphorylation in TNBC cell lines. The note with it: IJG-1731, BT-20 and MDA-MB468; 10 ng/ml; FIG. 1. The method, then: BT20 and MDA-MB468 triple negative (HER2-, ER-, PR-) were obtained from American Type Culture Collection (ATCC N°HTB19, and ATCC N°HTB132, respectively). […] MDA-MB468 cells were grown in a complete DMEM-F12 media with glutamine, 10% FCS and penicillin—streptomycin. All cells were maintained in a humidified 5% CO2 atmosphere at 37° C. All experiments were conducted with cells at confluency and starved for an overnight.
as §2

The subject of test [4] is STAT3. Kind of test: Tyrosine phosphorylation by Western blotting: STAT3 phosphorylation in TNBC cell lines. The note with it: 10 ng/ml. How it is done:
as §1, §2

Test [5] deals with PYK-2. As to the kind of experiment: Tyrosine phosphorylation by Western blotting: PYK-2 phosphorylation in TNBC cell lines. The following applies: three cell lines; 10 ng/ml; FIG. 1. The method, then:
as §1, §2

Test [6] relates to EGFR. As to the kind of experiment: Cellular fractionation and Western blotting: EGFR and pY1086EGFR translocation to the nucleus. The following applies: MDA-MB468 cytoplasmic and nuclear fractions; FIG. 4A. How it is done:
as §1
(§3) Cells (3×10^5) were seeded in 6-well plates in complete medium for 24 hours then starved for another overnight. Cells were stimulated for 2 hours at 37° C. with IL-17E (10 ng/ml), EGF (long/ml), or a combination of both as indicated. Cells were then washed with PBS and lysed in a lysis buffer (HEPES 10 mM, MgCl2 15 mM KCl 10 mM, DTT 0.5 mM, PMSF 0.2 mM, 1 mM Na3VO4, 10 mM NaF, 0.5% Nonidet P-40). […] Protein concentrations were determined by using Bradford method. […]

Test [7] has as its system STAT3. Kind of test: Cellular fractionation and Western blotting: STAT3 and pSTAT3 translocation to the nucleus. The note with it: MDA-MB468 fractions. How it is done: as §1, §3

B1: IL-17B: cytokine, product of the human IL-17B gene; ligand of IL-17RB (protein, UniProt Q9UHF5 21-180, looked up)
Interleukin-17B: QPRSPKSKRKGQGRPGPLAPGPHQVPLDLVSRMKPYARMEEYERNIEEMVAQLRNSSELAQRKCEVNLQLWMSNKRSLSPWGYSINHDPSRIPVDLPEARCLCLGCVNPFTMQEDRSMVSVPVFSQVPVRRRLCPPPPRTGPCRQRAVMETIAVGCTCIF
In the case of B1, the “translocation of EGFR (immunofluorescence)” value in test [1] is reported as “induced a translocation from the membrane to cytoplasm with a strong perinuclear reorganization”.

B2: IL-17E: pro-inflammatory cytokine, product of the human IL-17E gene, also named IL-25 (protein, UniProt Q9H293 33-177, looked up)
Interleukin-25: YSHWPSCCPSKGQDTSEELLRWSTVPVPPLEPARPNRHPESCRASEDGPLNSRAISPWRYELDRDLNRLPQDLYHARCLCPHCVSLQTGSHMDPRGNSELLYHNQTVFYRRPCHGEKGTHKGYCLERRLYRVSLACVCVRPRVMG
As for B2, the “phosphorylation of Src at Y416 at suboptimal concentrations” value in test [2] (MDA-MB468, IL-17E 1 ng/ml alone or EGF 0.1-1 ng/ml alone, FIG. 3) is listed as “failed to induce any significant phosphorylation”. Moreover, in test [2] (three cell lines, 10 ng/ml, FIG. 1), the “phosphorylation of Src at Y416” value is on record as “induced the phosphorylation”. In test [3], the “intensity of induced EGFR phosphorylation” value was “comparable to that induced by EGF”. Further, the “phosphorylation of STAT3-α and -β at Y705” value in test [4] (IJG-1731 and BT20 cell lines, FIGS. 1A and B) is listed as “induced considerable phosphorylation”. Further, the “phosphorylation of STAT3-α and -β” value in test [4] (MDA-MB468 cell line) is recorded as “less evident”. In addition, in test [5], the “phosphorylation of PYK2 at Y402” value is “induced the phosphorylation”. Also, the “translocation of EGFR (immunofluorescence)” value in test [1] is reported as “induced the translocation of EGFR to the nucleus but to a lower extends compared to EGF”. For the same molecule, in test [6], the “translocation of non-phosphorylated EGFR form to the nucleus” value is “fairly translocate” and the “translocation of phosphorylated EGFR (pY1086EGFR) to the nucleus” value is “failed to induce its significant translocation to the nucleus”. For the same molecule, the “phosphorylation of STAT3α and β” value in test [7] is “induced the phosphorylation”.
